Consider one molecule from patent publication US20140341915A1 (DEUTSCHES KREBSFORSCHUNGSZENTRUM, published 2014).

Test [1] deals with T1, B7-H6 polypeptide on cells (BA/F3-B7-H6 transfectants; cell lines expressing B7-H6 endogenously) (human, UniProt Q68D85 25-454).
T1 construct: whole, on cells; The construct used for the BA/F3 transfectants is not described
T1 sequence (looked up): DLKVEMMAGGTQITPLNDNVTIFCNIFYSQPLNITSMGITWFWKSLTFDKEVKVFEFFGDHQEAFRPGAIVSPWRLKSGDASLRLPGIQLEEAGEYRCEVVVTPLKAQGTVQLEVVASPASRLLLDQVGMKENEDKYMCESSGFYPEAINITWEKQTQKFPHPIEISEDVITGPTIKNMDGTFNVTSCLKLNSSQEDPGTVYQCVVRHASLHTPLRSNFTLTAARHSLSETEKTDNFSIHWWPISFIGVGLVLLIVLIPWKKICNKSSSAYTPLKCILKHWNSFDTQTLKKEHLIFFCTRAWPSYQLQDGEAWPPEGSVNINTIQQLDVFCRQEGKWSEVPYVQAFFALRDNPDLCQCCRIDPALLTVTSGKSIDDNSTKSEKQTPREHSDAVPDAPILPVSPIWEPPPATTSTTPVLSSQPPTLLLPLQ
The test can be described thus: immunohistochemistry on acetone-fixed cytospins, mAb at 5 µg/ml. As to the method: Acetone-fixed cytospins of a 1:1 mixture of Ba/F3 and Ba/F3-B7-H6 cells were stained using the Dual Envision+System-HRP (Dako). After blocking endogenous peroxidase activity, cytospins were blocked with 10% goat serum and 0.1 mg/ml human
IgG. […] After incubation with 3,3′-diaminobenzidine (DAB) substrate solution, cell nuclei were counterstained with Hematoxylin and mounted cyotospins were analyzed by light microscopy.

The target of test [2] is T2, B7-H6-Ig-fusionprotein consisting of the extracellular domain of B7-H6 fused to an IgG1-Fc domain (human, UniProt Q68D85 25-267).
T2 construct: Junction residues from restriction sites are not given; also called B7-H6-Ig-FP
T2 sequence: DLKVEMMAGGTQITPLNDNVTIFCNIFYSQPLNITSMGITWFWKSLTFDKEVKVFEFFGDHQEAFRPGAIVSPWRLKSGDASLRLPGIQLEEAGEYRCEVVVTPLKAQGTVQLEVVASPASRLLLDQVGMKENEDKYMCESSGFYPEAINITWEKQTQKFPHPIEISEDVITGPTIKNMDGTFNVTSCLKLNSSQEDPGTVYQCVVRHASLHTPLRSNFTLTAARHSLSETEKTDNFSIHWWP
The test can be described thus: ELISA. For orientation: ELISA stands for enzyme-linked immunosorbent assay.

B1: anti-B7-H6 monoclonal antibody (mAb) 1.18 (antibody, V domains shown)
VH: DVKLVESGGGLVKPGGSLKLSCAASGFTFSSYTMSWVRQTPEKRLEWVATINNGGSYTYYPDSVKGRFTISRDNAKNTLYLQMSSLKSEDTAIYYCYGYDPAWFAYWGQGTLVTVSA
VL: QAVVTQESALTTSPGETVTLTCRSSTGAVTTSNYANWVQEKPDHLFTGLIGGTNNRAPGVPARFSGSLIGDKAALTITGAQTEDEAIYFCALWYSNHWVFGGGTKLTVLG
As for B1, the binding result in test [1] and in test [2] was “binds” throughout.
